Assay results: the RNAGym collection of RNA variant scans (doi:10.1073/pnas.2313332121)

B1: TPR t1 (parent)
chain: GACCAAUCUGCCCUCAGAGCUCGAGAACAUCUUCGGAUGCAGAGGAGGCAGGCUUCGGUGGCGCGAUAGCGCCAACGUCCUCAACCUCCAAUGCAUCCCACCACAUGAUGAUGCCUGAAGAGCCUUGGUUUUUUG

Variants of: B1
Experiment: polymerase ribozyme fitness, log enrichment relative to wild type (log ratio); higher = more active; in vitro selection for triplet polymerase activity
In short: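 PCR was used to build mutant libraries for each subunit of a heterodimeric triplet polymerase ribozyme, which were then transcribed. A single in vitro selection round, in triplicate, used a frozen incubation at −7 °C and recovered extended constructs by gel excision, streptavidin beads and RT-PCR. Fitness is the logarithm of genotype enrichment relative to wild-type enrichment, averaged over replicates with inverse-variance weights. The logarithm is base 2, and after Illumina sequencing only genotypes with ≥10 input reads and ≥1 read per output were kept.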

| Variant | polymerase ribozyme fitness (log ratio) |
| --- | --- |
| G47A C115A | -1.2 |
| A43U G61A C73A C88A G93A A121U | -2.52 |
| G51A A83G G120U C123G G128U | -2.51 |
| C11G A18U C86U C124U | -0.586 |
| G45U G52U U54C G58C G60C | -0.884 |
| G113U C123G | -1.81 |
| A50U C88U | -1.71 |
| A43G G45U C72G | -2.45 |
| C56G G77C G127C U129G | -0.438 |
| G25C U33G C34U A46U C70A | -8.69 |
| C49G C85A U112G A121G C124U | -0.43 |
| G57A G63U U78C A95C C115A | -2.54 |
| A74U A84U A91C C102G G113U C115G A118G G128U | -7.73 |
| G61A A83G | -1.47 |
| A37U G113U | -3.11 |
| A27C A29G C62A | -5.73 |
| C53G U112C | 0.934 |
| G10A A37U G71C C104U | -0.936 |
| C11G G77U | 0.134 |
| C34U U109C C114A | -6.96 |
| C114U A119C | -6.28 |
| A37U G113U G120A | -2.83 |
| U81A A111U | -5.01 |
| A5C U54C C82G C104A U131C | -1.29 |

| Variant | polymerase ribozyme fitness (log ratio) |
| --- | --- |
| C49U C72G G113U G117U | -6.76 |
| C8U A41U C73A | -0.9 |
| G35A G60U | -3.33 |
| C3U C53G U112A | 0.998 |
| U9C G36U G47U | -2.03 |
| U9C C11G G36U U116A C123G | -1.92 |
| A29C C79U | -3.18 |
| C8U C53U C76U | 0.843 |
| G44A C56G C76A C86A | -2.93 |
| U87A G117U U129G | -5.03 |
| C3U C11U G42C C56A A74C A105U G120C | -6.23 |
| U59A A95G U125G | -0.633 |
| C98U C99A A118U U130C | -5.55 |
| A95U A111U G120U | -5.49 |
| C12G G60U G61C C88A U112A A119G | -3.63 |
| G36C C56U C89G G117U | -7.02 |
| C53U G61C U106G C124G G135A | -0.0167 |
| C56G G77A C102U U116C | -3.2 |
| G117A U131G | -1.55 |
| C3A C4G U7A U21A C40U G47U C114U | -3.96 |
| C70U U106G C124U | -1.06 |
| C49A G93U U112G | -1.59 |
| U92G G117C U129C U133C | -4.13 |
| C20U A43C G47A C82G A95U A105C U112A | -4.61 |

| Variant | polymerase ribozyme fitness (log ratio) |
| --- | --- |
| C70G A121U | -0.929 |
| A27G A105U | -4.91 |
| G63A U133G | -1.23 |
| C40U A74G C79G | -2.36 |
| G47U G113U | -3.52 |
| A2U C11U G63U C101G G113U C115U | -6.67 |
| A121U | 2.12 |
| C11A G52U | -2.14 |
| C22U G60A C123A | -4.89 |
| A18U A83C C94G C115G C123G U134G | -1.77 |
| C34U A100C | -3.69 |
| A6U C8G G17A G48C C53A U126C | -4.16 |
| G17U C34A G63A C79U C115A | -3.37 |
| C11A C49U C94G | -2.46 |
| A5C G120C | 0.663 |
| C22G G36U | -4.91 |
| C34G A43G C53A A111C C123G | -6.97 |
| C49A G63U | -1.35 |
| C79G C123G | 0.221 |
| A41U G57U C82U | -1.52 |
| C40A G61A A105G | -4.93 |
| C49U A95C | -1 |
| G69C U92C | -2.26 |
| C11G G51A C53G C124U U131G | -1.71 |

| Variant | polymerase ribozyme fitness (log ratio) |
| --- | --- |
| G61C C104U | -1.51 |
| G10A C22G G61A G71C A111U G117A | -7.23 |
| C11U G45C U81G | -4.91 |
| A2G A5C C11A G71U C99U | -3.65 |
| U9G C22G C34G G69U | -3.72 |
| C72U A84C | 0.0877 |
| U9A C13G G61U C123G | 1.99 |
| G69C U96C | -2.24 |
| C56A C114A G135A | -2.55 |
| C20U C86A | -2.3 |
| U54A G71C C89U U129A | -2.49 |
| C11G G19C G60A C123A U129C | -2.66 |
| A29G C62U | -1.68 |
| A46U C73U C82U G93U G110U | -3.63 |
| C56U G60U | -3.21 |
| A26G G110U | -2.66 |
| G42U A74U | -2.19 |
| C8G C76U G135A | -0.923 |
| A43G G107U G110C A118U C124A | -7.12 |
| C102U U125G | -1.4 |
| C22G A75U C101U C123A G128C | -6.24 |
| U7C G69A C88A | -2.92 |
| C15A A37G G45U G93U U112C G122C C123G U125A | -5.64 |
| C49A G77C | -0.848 |

| Variant | polymerase ribozyme fitness (log ratio) |
| --- | --- |
| C72A C102A U125G | -2.01 |
| U33G C104A A121C G135A | -5.07 |
| U14A C94G | -3.05 |
| G10C U87G C115U A119G G120C U131G | -1.59 |
| C3G C15A | -5.49 |
| G44C A95G A118G | -1.3 |
| G10U C62A G71U G127C | -0.898 |
| G60U G77A U131A | -0.885 |
| A26C G47C U112A | -4.78 |
| G44U G71A | -2.39 |
| A2U G36C C53U | -3.54 |
| C64U A84U U87A | -1.17 |
| C82U C86U G110A U133C | -0.604 |
| C8A C20U A37G | -0.63 |
| C64U G65A | -4.3 |
| A18C G48A | -2.74 |
| C22U C89U | -3.61 |
| C11G A24G C40U G120U U132G | -2.9 |
| G19A G60A A95U | -3.51 |
| C11U C34U C86G C102U A121U | -1.28 |
| C34U C85U C102U | -3.64 |
| G52C G61C | -3.04 |
| C3U C11U G48A G117C C123G U129C U133C | -2.05 |
| C12U C86G | -0.52 |

| Variant | polymerase ribozyme fitness (log ratio) |
| --- | --- |
| C40G C64U C85A U112C | -0.298 |
| C15A C94U C114G U126A | -5.6 |
| G60A C79U C80A A121G | -3.77 |
| C73U C89A G120U | -2.25 |
| G10A A24G | -1.53 |
| G39C C98U G117A | -3.94 |
| C8G A41G U78G G122U | -0.0287 |
| C4U G71A | -0.833 |
| G48U G110U U125A | -2.52 |
| A27U U112C | -1.46 |
| G35U G113C G120A G135C | -5.82 |
| U9G G63U G128C | -3.23 |
| U7G U21C U59G G63A U116G C124G U131A | -5.19 |
| G61A U78C C88G | -0.472 |
| G61U A83C C104A C115U | -4.01 |
| A111U G120A | -3.85 |
| U7C C13U | 0.52 |
| A91U G93C G113C G135U | -3.6 |
| C49A C70G | -4.31 |
| C72U C80A U87C | -3.67 |
| A41U C70G G120U | -6.06 |
| G61U G113A C115U | -3.08 |
| A46G C97U C114G | -4.73 |
| C11G C89A | -1.26 |

| Variant | polymerase ribozyme fitness (log ratio) |
| --- | --- |
| C12U U92C | -1.15 |
| G51U C88A U106A U112C | -3.27 |
| C11A C13U G63C A83U | -1.91 |
| G113A G117A | -4.4 |
| A46G G57A A83G U112C | 0.022 |
| C72U C98U U131C | -1.05 |
| G10A A43G A119U | -1.73 |
| A74C C80A C101G C123A | -4.26 |
| G35U C40U | -4.76 |
| C49A A50C A119G | 0.187 |
| C4A C8G G36U G45U U78A C114U | -5.41 |
| A2G C4A U7C G47C C56A A68G C99A G110U C115G G117C U129A | -7.47 |
| C40G U55G C62U U78G | -2.04 |
| A6U A29G G71A A83G C89A U109C G120C C123G U132A | -6.04 |
| A2G C13G | 0.491 |
| C11G C114U C124G | -2.07 |
| A5G A6C | -0.0257 |
| G69A U87G | -2.08 |
| G25C G42U G44U C104U C124U | -7.89 |
| A2U G36C C72G | -4.64 |
| A41U G61C C115A G117A | -5.8 |
| A16G C72G U129G | -2.89 |
| A6U G48C U54A C89A C97U | -3.1 |
